Reference: the DeepSol protein solubility set

Experiment: soluble on expression in E. coli; label from the status in PepcDB or PDB records

Row | Sequence | soluble on expression in E. coli
1 | GSHMLITASSSKEYLPDLLLFWQNYEYWITNIGLYKTKQRDLTRTPANLDTDTEECMFWMNYLQKDQSFQLMNFAMENLGALYFGSIGDISELYLRVEQYWDRRADKNHSVDGKYWDALIWSVFTMCIYYMPVEKLAEIFSVYPLHEYLGSNKRLNWEDGMQLVMCQNFARCSLFQLKQCDFMAHPDIRLVQAYLILATTTFPYDEPLLANSLLTQCIHTFKNFHVDDFRPLLNDDPVESIAKVTLGRIFYRLCGCDYLQSGPRKPIALHTEVSSLLQHAAYLQDLPNVDVYREENSTEVLYWKIISLDRDLDQYLNKSSKPPLKTLDAIRRELDIFQYKVDSLEEDFRSNNSRFQKFIALFQISTVSWKLFKMYLIYYDTADSLLKVIHYSKVIISLIVNNFHAKSEFFNRHPMVMQTITRVVSFISFYQIFVESAAVKQLLVDLTELTANLPTIFGSKLDKLVYLTERLSKLKLLWDKVQLLDSGDSFYHPVFKILQNDIKIIELKNDEMFSLIKGLGSLVPLNKLRQESLLEEEDENNTEPSDFRTIVEEFQSEYNISDILS | soluble
2 | MGSDKIHHHHHHMSHLLKPKPNLLLIDDDEDVLDACRQLFNLSGYQVRATNSPQKALEALSRDWDGVVISDIYMPAMHGLDLLAAVHHIDPQIPVIMITGHADIPLAVKAVKQGAADFIEKPLDPPTFLALVKKAATQRHQLIGQRQNIQDSLAGQLLGSSAQINDLREQLGQLALTDRDVMLEGPRGVGRNTLAALLHKLGPRAEGPLQQLECALVESPEKLQQAVDASRGGTLILRELEHLPTDSQRWLASFLLDQERRGNKEVRTIAILESQPETLVQEQTLTPECFYYFSQVRLRLPALCERPSDIVPLFMAFLKESCRRLSRKMPTVENRYLDNLKQHSWPGNVRELRNVAELYAVGIVKLANVQRIAAAPSVKGPLDELVDDYEKRLIEDALFLFSGRVSEAADYLNVPRKKLYLRMKKYGLDKECFKPVKPGRG | not soluble
3 | MFSDELEKISWEETTKAIYSKTDADVRRALSKEHCDVNDFMALISPAAAPYLETMARLSRKYTMERFGKTISMFVPLYITNSCTNSCVYCGFNHNNPMKRTILTEEEMVNEYKAIKKLAPFENLLLVTGENPAKAGVDYIERALLLAKPYFANLQIEVMPLKAEEYERLTHAGLNGVICFQETYNKANYNIYHPRGMKSKFEWRVNGFDRMGQAGVHKIGMGVLIGLEEWRTDITMMAYHLRYLQKHYWKTKYSVNFPRMRPSENGGFQPNVVMNDRELAQVTFAMRIFDHDVDISYSTRESAAFRNHMATLGVTTMSAESKTEPGGYFTYPQALEQFHVSDERKAVEVDAALRSLGRIPVYKDWDTALTLPQC | soluble
4 | MVYRKVTISTKVFENTNAIVAWVSGRPVLLSKYEGKYYAMDAVCGHMGCAILDKVEGKEAVCPAHRARYDVTTGKKTADAVIRPEVKCEYNEASDTLKVYPVRENNGFLEVDMP | not soluble
5 | MIVCMSVSLLRSYAVRRALGALVVAGFLGAGVTGCSNDAGAKTENTVDGSPTPVSTPTDGEGDGAGEPVEETPAEPEQRPTPVEPEAMKTGDKAGAIAAAQYFVEVIEYSMHTSTTDLLEKYSYEHCDRCAHFVEVINTRQEKNVLPKSVVINSSQEGHPEFRGEGAIIWRVPMRLQISEQWETGKEPRKEDVKVSISVANENGRWVLVGIVAED | not soluble
6 | AIASVAFVPDWLRGKAEVNQETIQRLLEENDQLIRCIVEYQNKGRGNECVQYQHVLHRNLIYLATIADASPTSTSKAME | soluble
7 | MNQELKLRPLEREDLKFVHELNNNAHIMSYWFEEPYEAFVELQDLYDKHIHDQSERRFIVEKDNEMVGLVELVEIDYIHRRTEFQIIIDPNYQGYGYAVEATRLAMDYAFAVLNMHKIYLVVDKENEKAVHVYKKVGFMVEGELIDEFFVDGNYHNAIRMCMFQKQYFENK | not soluble
8 | MSLHSLTRIKVLQRRCTVFHSQCESILLRYQDEDRGLQAEEEAILEQIAGLKLLLDTLRAENRQLSREEIYTLLRKQSIVRRQIKDLELQIIQIQEKRSELEKKREEFQKKSKYWLRKEGNYQRWIIRQKRFYIQREIQQEEAESEEIIEGHHHHHH | soluble
9 | MSLKITDVDVWVVNLPLVNPFTSSFETKTGETRTVVRVRTDSGVEGWGETMWGAPVAAIVRRMAPDLIGTSPFALEAFHRKQHMVPFFYGYLGYAAIAAVDVACWDAMGKATGQSVTDLLGGAVRDEVPITALITRADAPGATPADLPKAMAEHAVRVVEEGGFDAVKLKGTTDCAGDVAILRAVREALPGVNLRVDPNAAWSVPDSVRAGIALEELDLEYLEDPCVGIEGMAQVKAKVRIPLCTNMCVVRFEDFAPAMRLNAVDVIHGDVYKWGGIAATKALAAHCETFGLGMNLHSGGELGIATAAHLAVVSSTPVLSRAIDSMYYLHADDIIEPLHLENGRLRVPSGPGLGVSVDEDKLRHYAGVNERDGDLTGEGHHHHHH | soluble
10 | MAHHHHHHMLLAIVRDLLQLFRPYAAALHPETTQVWFSVRDTPLSWLYPAGAVKDYVNECVREERAAHLSASSPSSPPLSSAAALLQSHLCTILSEPLELSFHIHSLTKGSSLARTVPLYINYDRLEEHIRMEVKQAHKAAYTVLYGNYAIYQREAESALQAAVGLALYRPFDAAAQEQLQQQRYRDPGSSGSGGAGVGNGGYSSSNSPGGGYSAPFAFTSPYLLVEYQQLLRGLLTPRPHVAYLIRIGFPFAYRGAAGRSESGYLQYDAHRVSAAPALALSVTTTEAAAAPTMEPEQLPLGLLLWRLFRAPVLRWKAQQLQQHPTDNTSPSTAAHASATVLSEVERTYQQLLRTLAPYYADPPRCATDGLEQQEPLMTSTPPEPPAWAAWERAMVQAFMRDYEERPEKCGLGFEFAEAAATSAASPNAVRRVRFMVQGIQPPLTTPGSFLEAHLSSSDRAIFVTVQV | not soluble
11 | MGSDKIHHHHHHMKIAFVSTRGIPNNYGGFEQFAEYISVGMAQRGHEVVVYSPKFHPYQESTYKGVRIKHIYSPETWMGSSVGSFFYDFASLRDALKKEDFDIIYEAGYTSIIPAYIWFNVKKRKRPIFTTNMDGLENKRSKFSPMVRRFLDWEEKMAVKYSHYLIADNMGIHDYYKEKYGKESKFLAYGADIHDDFKAEYLEEFGLKSEEYYILIARLEPENNIVMAIEGYLHSKENGRRPLIVVGKTNTPHGKELVEKYGNERNVEFVGGIYDFKKLDSVRHFSKAYFHGHSVGGTNPSLLEAMAAGCFIFAHDNIFNRAVLKENAFYYPSADKVTEYLNRIDTIAEGSKIQYTARNIEVIRNEYSWESLIDKHEKYFYWLLSQKQ | not soluble
12 | MSLGIKVNRLKVEDQILRQFGGNLLLEKDGNRGFIAFIGRGLIDFTERIRILATVSRIKDILFIGTAGSLSNEILIGDLNIPKYAIPFENVSDFYADPTIAIPQADEKLLNEVYEYAEETGVKTHSTLHATLLFPYSETTEFLNYLLNIGVSTIDMEVSAFYKMSRFYGKRAVAVLRISDMPLIELHKQEELIKARREIAVNAVFRITLRFLKLEGHHHHHH | not soluble
13 | SLRQDELKELERAIAEITEIAEGFGLDFYPMRYEICPADILYTFGAYGMPTRFSHWSFGKQFYKMKLHYDLGLSKIYELVINSDPCYAFLLDTNTLIQNKLIVAHVLAHSDFFKNNVRFSNTKRDMVESMAATAERIKHYEHQYGKLEVEKFLDAVLAIQEHIDPSLLRPKLSWTWEDTEVYEEEEPPKTSTPYDDLWSLDERDKLKTPPRKKRRKFPPQPEKDVLLFIEEYSRELEDWQRDILTMMREEMLYFWPQLETKIMNEG | not soluble
14 | MGSRTGSREEHSLQFLNLTKMTTTTASNLPWVEKYRPSKLDELVAHEQIVKTLTKFIENRTLPHLLFYGPPGTGKTTTVLAAARQMYSPTKMASMVLELNASDERGIDVVRNTIVNFAQTKGLQAFSTSSNTGTVPFKLVILDEADAMTKDAQNALRRLDKTDYEQNIIIHNVNIYFRVIEKYTDNVRFCIICNYLASIVPAIQSRCTRFRFAPLDQKLIVPRLEYIVETEQLKMTPDGKDALLIVSKGDMRTVINTLQSTAMSFDTVSENTVYQCIGQPTPKEMKEVVKTLLNDPSKKCMNTIQTKLFENGYALQDVITHLHDFVFTLDIPDEAMSAIITGLGEVEENLSTGCSNETQLAAVVAAFFEAKRLCVKEMKNLEIEDMEF | not soluble
